Usually EC50 stands for the concentration that produces a half-maximal response. A high value points to a need for much substance. As usually defined, the Kd is a measure of binding affinity in units of concentration. The koff is the rate constant with which the complex falls apart. Higher therefore signals a short-lived complex. One may read the kon as a measure of how fast the partners come together. High values mean fast association, low ones slow association.

One experiment deals with T1, human DLL3 on cells (human, UniProt Q9NYJ7 27-618).
T1 construct: Endogenous on H1184 and SHP77; Cell line is named under assay; also called H1184; DLL3/H82
T1 sequence: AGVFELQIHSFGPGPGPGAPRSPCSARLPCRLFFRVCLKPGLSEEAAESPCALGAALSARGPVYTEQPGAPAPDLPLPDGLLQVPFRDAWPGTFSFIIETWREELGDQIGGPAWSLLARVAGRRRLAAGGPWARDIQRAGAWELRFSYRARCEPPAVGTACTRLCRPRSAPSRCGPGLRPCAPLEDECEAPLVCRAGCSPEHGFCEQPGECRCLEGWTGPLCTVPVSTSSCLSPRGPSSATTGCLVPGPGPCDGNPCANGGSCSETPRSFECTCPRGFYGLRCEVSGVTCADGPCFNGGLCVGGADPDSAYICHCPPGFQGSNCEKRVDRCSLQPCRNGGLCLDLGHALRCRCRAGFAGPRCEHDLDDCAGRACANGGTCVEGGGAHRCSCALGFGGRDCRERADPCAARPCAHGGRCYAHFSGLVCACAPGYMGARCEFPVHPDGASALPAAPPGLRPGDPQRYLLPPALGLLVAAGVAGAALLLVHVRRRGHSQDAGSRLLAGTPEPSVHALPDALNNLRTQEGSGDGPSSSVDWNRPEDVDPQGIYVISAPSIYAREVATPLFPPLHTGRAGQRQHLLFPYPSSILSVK
Kind of experiment: flow cytometry, SHP77 cells. The protocol:
The plates were centrifuged at 300 g for 5 min, and the supernatant was removed. Different concentrations of test antibodies were added at 100 μL/well. The plates were incubated in the dark in a refrigerator at 4° C. for 1 h. After 3 centrifugal washes at 300 g, working concentrations of APC anti-human IgG Fc (BioLegend, 410712) or PE F(ab′)2-goat anti-human IgG (invitrogen, H10104) were added. The plates were incubated in the dark in a refrigerator at 4° C. for 40 min. After 3 centrifugal washes at 300 g, the geometric mean fluorescence intensity was measured on an Invitrogen flow cytometer, and the EC50 values for the binding of the antibodies to DLL3-expressing cells were calculated.

In experiment [1] the target is T2, human DLL3 (ACRO, DLL3-H52H4) (human, UniProt Q9NYJ7 27-492).
T2 construct: Bought
T2 sequence: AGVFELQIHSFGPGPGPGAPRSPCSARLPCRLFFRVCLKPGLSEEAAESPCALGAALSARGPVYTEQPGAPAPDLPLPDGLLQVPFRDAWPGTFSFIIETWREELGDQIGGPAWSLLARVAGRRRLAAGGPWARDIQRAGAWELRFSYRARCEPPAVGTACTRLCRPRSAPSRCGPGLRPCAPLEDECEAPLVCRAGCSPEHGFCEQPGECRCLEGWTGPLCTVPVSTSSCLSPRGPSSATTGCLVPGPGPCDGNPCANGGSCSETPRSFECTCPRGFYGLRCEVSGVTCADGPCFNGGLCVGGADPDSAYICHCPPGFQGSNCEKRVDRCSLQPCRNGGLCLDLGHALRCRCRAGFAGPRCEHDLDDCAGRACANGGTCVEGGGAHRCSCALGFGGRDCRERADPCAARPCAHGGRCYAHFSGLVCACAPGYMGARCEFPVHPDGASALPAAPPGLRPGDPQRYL
The experiment can be described thus: SPR Biacore 8K, Ab captured on Protein A. The method in brief: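 Antibodies captured on a Protein A chip for 18 s; DLL3 or CD3D&3E antigen flowed 180 s, then 600 s dissociation, with real-time detection. Regeneration used 10 mM glycine-HCl pH 1.5 between cycles. Kinetics were obtained by 1:1 model fitting.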

B1: hu30L4H5 (antibody, human IgG1, kappa, V domains shown)
VH: EVRLVQSGAEVKKPGASVKVSCKASGYTFTDYYMNWVRQAPGQSLEWMGIINPYTGDTSYNQKFRGRVTLTVDKSASTAYMELSSLRSEDTAVYYCARYHYGPHLEGYFDVWGQGTTVTVSS
VL: DIQMTQSPSSLSASVGDRVTITCKASENVGYVSWYQQKPGKAPKLLIYGASNRYTGVPSRFSGSGSGTDFTLTISSLQPEDFATYYCGQSYSYPLTFGQGTKLEIKR
In the experiment with human DLL3 on cells, B1 came in with an EC50 of 5.44 nM and an Emax of 1460. In experiment [1], this molecule showed an equilibrium dissociation constant (Kd) of 2.09 nM, a koff of 0.00092 s⁻¹ and a kon of 440000 M⁻¹ s⁻¹.

B2: hu30L5H9 (antibody, human IgG1, kappa, V domains shown)
VH: EVRLVQSGAEVKKPGASVKVSCKASGYTFTDYYMNWVRQAPGQSLEWIGIINPYTGDTSYNQKFRGRATLTVDKSASTAYMELSSLRSEDTAVYYCARYHYGPHLEGYFDVWGQGTTVTVSS
VL: DIQMTQSPSSLSASVGDRVTITCKASENVGYVSWYQQKPGKSPKLLIYGASNRYTGVPDRFSGSGSGTDFTLTISSLQPEDFATYYCGQSYSYPLTFGSGTKLEIKR
As to B2, in the experiment with human DLL3 on cells, the midpoint of the response, the EC50, lay at 9.6 nM and the Emax came to 1560. In experiment [1], this molecule showed a Kd of 2.48 nM, a koff of 0.000989 s⁻¹ and a kon of 399000 M⁻¹ s⁻¹.

B3: hu30L4H11 (antibody, human IgG1, kappa, V domains shown)
VH: EVRLVQFGAVVKKPGASVKVSCKASGYTFTDYYMNWVRQAPGQSLEWMGIINPYTGDTSYNQKFRGRVTLTVDKSSSTAYMELSSLTSEDTAVYYCARYHYGPHLEGYFDVWGQGTTVTVSS
VL: DIQMTQSPSSLSASVGDRVTITCKASENVGYVSWYQQKPGKAPKLLIYGASNRYTGVPSRFSGSGSGTDFTLTISSLQPEDFATYYCGQSYSYPLTFGQGTKLEIKR
In the experiment with human DLL3 on cells, B3 showed an EC50 of 7.82 nM and an Emax of 1520. In experiment [1], this molecule returned a Kd of 2.84 nM, a koff of 0.00113 s⁻¹ and a kon of 398000 M⁻¹ s⁻¹.

B4: hu30L4H9 (antibody, human IgG1, kappa, V domains shown)
VH: EVRLVQSGAEVKKPGASVKVSCKASGYTFTDYYMNWVRQAPGQSLEWIGIINPYTGDTSYNQKFRGRATLTVDKSASTAYMELSSLRSEDTAVYYCARYHYGPHLEGYFDVWGQGTTVTVSS
VL: DIQMTQSPSSLSASVGDRVTITCKASENVGYVSWYQQKPGKAPKLLIYGASNRYTGVPSRFSGSGSGTDFTLTISSLQPEDFATYYCGQSYSYPLTFGQGTKLEIKR
In the experiment with human DLL3 on cells, B4 gave an EC50 of 9.94 nM and an Emax of 1370. Also, in experiment [1], the affinity, expressed as Kd, was 2.57 nM; the off-rate constant (koff) was 0.00101 s⁻¹; the kon amounted to 392000 M⁻¹ s⁻¹.

B5: hu30L5H5 (antibody, human IgG1, kappa, V domains shown)
VH: EVRLVQSGAEVKKPGASVKVSCKASGYTFTDYYMNWVRQAPGQSLEWMGIINPYTGDTSYNQKFRGRVTLTVDKSASTAYMELSSLRSEDTAVYYCARYHYGPHLEGYFDVWGQGTTVTVSS
VL: DIQMTQSPSSLSASVGDRVTITCKASENVGYVSWYQQKPGKSPKLLIYGASNRYTGVPDRFSGSGSGTDFTLTISSLQPEDFATYYCGQSYSYPLTFGSGTKLEIKR
With B5, in the experiment with human DLL3 on cells, the EC50 is 7.48 nM and the Emax was 1610. In experiment [1], the Kd is 1.98 nM, the koff is 0.000882 s⁻¹ and the association rate constant (kon) amounted to 446000 M⁻¹ s⁻¹.

B6: hu30L4H8 (antibody, human IgG1, kappa, V domains shown)
VH: EVRLVQFGAVVKKPGASVKVSCKASGYTFTDYYMNWVRQAPGQSLEWMGIINPYTGDTSYNQKFRGRVTLTVDKSSSTAYMELSSLRSEDTAVYYCARYHYGPHLEGYFDVWGQGTTVTVSS
VL: DIQMTQSPSSLSASVGDRVTITCKASENVGYVSWYQQKPGKAPKLLIYGASNRYTGVPSRFSGSGSGTDFTLTISSLQPEDFATYYCGQSYSYPLTFGQGTKLEIKR
In the experiment with human DLL3 on cells, B6 gave an EC50 of 5.3 nM and an Emax of 1420. Besides, in experiment [1], the Kd stood at 2.74 nM, the koff is 0.000942 s⁻¹ and the kon was 343000 M⁻¹ s⁻¹.

For the origin of these results see patent US20250376519A1 (JIANGSU HENGRUI PHARMACEUTICALS, published 2025).
